Results published in article doi:10.1101/2024.01.24.576984 (bioRxiv, 2024).

The binders below were run against 2S-hsINTS13-hsINTS14 (human, UniProt Q9NVM9;Q96SY0) (assay: fluorescence polarisation).

Row | Binder | Kd
1 | EGEEDEEGKLVIDEPAK [GFP-hsHDGF S2E (130-146)] | 2630 nM
2 | YDSDGDKSDDLVVDVSNE [GFP-hsTLE3 (238-255)] | > 10000 nM
3 | DDWEIGVGNLIIDLDAD [GFP-hsZNF608 (24-40)] | 633 nM
4 | EDRLERLQEILRKFLYLEREFRQITIS [GFP-hsZNF655 (93-119)] | 17.6 nM
5 | DEWDIGVGNLIIDLDAD [GFP-hsZNF609 (25-41)] | 573 nM
6 | DTGSETDEEDKLHIAEDD [GFP-hsZEB2 (33-50)] | > 10000 nM
7 | EGSSDEEGKLVIDEPAK [GFP-hsHDGF (130-146)] | 5850 nM

Each binder was assayed against hsINTS13(1-256Δ27-48) (human, UniProt Q9NVM9 1-256, Δ27-48) (assay: crystal structure).

Row | Binder | binding result
8 | EDRLERLQEILRKFLYLEREFRQITIS [hsZNF655(93-119)] | binds
